The record followed here is the DeepSol protein solubility set.

This series can be described thus: soluble on expression in E. coli; label from the status in PepcDB or PDB records.
For “SMTTNVGDSTLADLLDHSCTSGSGSGLPFLVQRTVARQITLLECVGKGRYGEVWRGSWQGENVAVKIFSSRDEKSWFRETELYNTVMLRHENILGFIASDMTSRHSSTQLWLITHYHEMGSLYDYLQLTTLDTVSCLRIVLSIASGLAHLHIEIFGTQGKPAIAHRDLKSKNILVKKNGQCCIADLGLAVMHSQSTNQLDVGNNPRVGTKRYMAPEVLDETIQVDCFDSYKRVDIWAFGLVLWEVARRMVSNGIVEDYKPPFYDVVPNDPSFEDMRKVVCVDQQRPNIPNRWFSDPTLTSLAKLMKECWYQNPSARLTALRIKKTLTKID”, the “soluble on expression in E. coli” value is listed as “soluble”.
For the sequence “MGSDKIHHHHHHMKTERLISYLRPGRWPSVWCPGCGNGIVLKAFLEAVDDLALPKEKVAVVSGIGCSSRATGYLDFNTLHTLHGRAIAFATGVKLAKPDFEVVVMGGDGDILSIGGNHFIHACRRNIDITVVIFNNMIYGMTGGQVSSTTPQYYQTSTTPLGAFEKPFDAVEIALSAGATFVARSTVYHYDHLVRVLKKALQHRGISVVDVLTNCHTYFGRYNGMPEPHQMMEYFKNNTCFLERPEEGKIKIGIFREEEKEDFLTVYRRLTRKEGAME”, the “soluble on expression in E. coli” value is recorded as “not soluble”.
The entry for “MSLAEVGSKSVLFVCLGNICRSPIAEAVFRKLVTDEKVSDNWAIDSSAVSDWNVGRPPDPRAVSCLRNHGISTAHKARQITKEDFATFDYILCMDESNLRDLNRKSNQVKNCKAKIELLGSYDPQKQLIIEDPYYGNDSDFEVVYQQCLRCCKAFLEKTYEGHHHHHH” is “soluble”; for “MPITSTTPEPGIVAVTVDYPPVNAIPSKAWFDLADAVTAAGANSDTRAVILRAEGRGFNAGVDIKEMQRTEGFTALIDANRGCFAAFRAVYECAVPVIAAVNGFCVGGGIGLVGNSDVIVASEDATFGLPEVERGALGAATHLSRLVPQHLMRRLFFTAATVDAATLQHFGSVHEVVSRDQLDEAALRVARDIAAKDTRVIRAAKEALNFIDVQRVNASYRMEQGFTFELNLAGVADEHRDAFVKKS” it is “not soluble”.
Turning to “MLDPARSFDIIGDVHGCALTLERLLDALGYKRVAGVWRHPRRQALFLGDIVDRGPRIREALHIVHDMVEAGQAFCIMGNHEYNALGWVTPALPGSGKAYVREHTPRHARLIDETLTQFAQHPGDWHDFVNWFYQLPLFIDAGRFRLVHACWDPRLIEPLRQQYPDGRIDEHFIQASAVSGSFADTVCNRLLRGTDMRLPDGLTLTGGDGLTRAFFRTKFWEEDPKTYGDIVFQPDALPEEVASTPLSHSQKNALLRYDEDQPMLFVGHYWRSGRPAPIRANLACLDYSAVLYGKLVAYRLDDETRIDPHKFVWVDVDRPQANQLEHHHHHH”, the “soluble on expression in E. coli” value is recorded as “soluble”.
As for “MAHHHHHHMKAKGPVKIVLFGAPGVGKGTFAEILSKKEKLKHINMGSILRDEIKNKTTIGREIHKVVTSGNLVADELVVKIVKGEIAKVTAQDGHFKGFILDGFPRNLLQCKQLVEITSIDLFVNIHMPRHILLKKIMGRRICHECNRNFNIAHIRDDPYDMPPILPPPECEKCKGNPKLQRRSDDEEEIVAHRLDTYESTNSHLINFFKNSNCNLVDFEIQRGLRDFDSFYRVVGQHL”, the “soluble on expression in E. coli” value was “not soluble”.
Consider “MRSKFFSFFTRASRPMKAIPPKIWFETQLKGSGLDKKFQIDELIETQSSVRVFANKKYLPDTETINEALTKVTAVNVSGDKSGYFQNGLPFPNEAGYFEKIPVGHPELLSPIERLTGSKKIVSSHSLVTASGGYPLTNPLLPYRKPIRVSIFSLAGPSFENNYLHYRLFLLDSVQKIIDSPLFSHLHDGLPIQFDEAKKELGEYDTNKLMARIRLGFPYLARFSSGGFYPSFSKSNAIIFLSEAYFRYQLEDVSLLLASVNQTGKETGKAALLKATAVGMGFFAKIDCGYDIQHIIFPYYLRAYKKLLSEHKFPWIAKIEFPIFNEIQQEQFDSIFEDYDGPTKVYRSTRDVLEFREEEIEKYLPAAINPSDAFALTGNEWGYGSVESMIGNNSSIRFDQVHHMNPLILDPSHHVEAQINKDHGVELTVNPRPQSSSSIKL”, for which the “soluble on expression in E. coli” value is “not soluble”.
For “MSIVSISYNQEEYIREALDGFAAQRTEFPVEVIIADDASTDATPRIIGEYAARYPQLFRPILRQTNIGVHANFKDVLSAARGEYLALCEGDDYWTDPLKLSKQVKYLDRHPETTVCFHPVRVIYEDGAKDSEFPPLSWRRDLSVDALLARNFIQTNSVVYRRQPSYDDIPANVMPIDWYLHVRHAVGGEIAMLPETMAVYRRHAHGIWHSAYTDRRKFWETRGHGMAATLEAMLDLVHGHREREAIVGEVSAWVLREIGKTPGRQGRALLLKSIADHPRMTMLSLQHRWAQTPWRRFKRRLSTELSSLAALAYATRRRALEGRDGGYRETTSPPTGRGRNVRGSHA”, the “soluble on expression in E. coli” value was “not soluble”.
The result for “MSLDDSYRIRHIVVKDEEEAREVLKELKGGSSFEAVAAERSTDRYTSPYGGDLGFVTEASDNIPSAYIEEAKTLKEDEWSQEPIKVSNGYAIIQLKEKLKARTFSFDEVKDQIRRQIAMDQLGDKATVKTLWKEADVSWFYGEKSTKEGHHHHHH” reads “soluble”.
“MTQLKPGACWSDNPKKVLEMLSPMNIIAITRSIPENTPNSWFIYWLTKVEEGEVRENIYAISPTKLEILPDLVKKALKLGYDGVYIDGIEALVIENGFKSVAKFLLHIKDIVLAENKFIILTLDPRALKEEEIKIIEKEFKKLELSLEHHHHHH”: the “soluble on expression in E. coli” value is reported as “soluble”.
Consider “MGSDKIHHHHHHMKGGTEPVETSKMEKAAALLGGMIDLPTIPAVAIQVLSLLDEPEVDVDDVAELVLTDQVMAARVLKMVNSPLYRPATEITSLKGALVYLGLRHIREFILTCSIIQCSEGKDGVLGVKPFWEHSFGVGIVARLIAEKVGYHDTEKAYIGGIIHDIGEVFLSYYMRDEFQKIVDSISDKPHKLVEAEEEFLGTTHCEIGLCIARAWRFPDDYCEVIAHHHAPQEAKNAPRLTAIVNLADLFCNVRQLDYGGKAWVSFSLADEPAWGMLQGPGSRLSELDIERFCYELDDRVEEISELVGNIFKNG”, for which the “soluble on expression in E. coli” value is reported as “not soluble”.
“MKPLLETIDTRFGTTNKHAFSRGNTLPYTGVPFGMNYFVPQTSDQDGSWFFDPHLPIFQGIRLTHQPSPWIGDYSWLLLTPVTSQLGGDSLFHRQSSYDIDKACFQPHYLKLFSLRYQIETQLTPTCYGASIRLNQKQGKALSLYLHAADELTVEQVDKRTLALRQEGKTETNKNSLTMFTLEHHHHHH”: the “soluble on expression in E. coli” value is given as “not soluble”.
On to “MTAKKEHLFIVFENLIKIKSECSCEIFSECGISDITVKQIGYLKAIDEHGEVTFSRLAKITKNSKPTITEMVNKFVRMECVYREKCPEDGRIFYIRLTEKGQRIARAEESSLLRVIEKMAESLNEKEIETLIRILGKVR”, for which the “soluble on expression in E. coli” value is on record as “not soluble”.
On to “MGSDKIHHHHHHMPVAKKYFEIRWHGRAGQGAKSASQMLAEAALEAGKYVQAFPEYGAERTGAPMRAFNRIGDEYIRVRSAVENPDVVVVIDETLLSPAIVEGLSEDGILLVNTVKDFEFVRKKTGFNGKICVVDATDIALQEIKRGIPNTPMLGALVRVTGIVPLEAIEKRIEKMFGKKFPQEVIDANKRALRRGYEEVKCSE”, for which the “soluble on expression in E. coli” value is “soluble”.
For “MRAIDLNSDLGESFGAWSMGDDAAMLDIVTSANVACGFHAGDPAGILRTLKAAAAKNVTIGAHVSYPDKVGFGRRNMDVASDELTADVIYQIGSLQGLAKAAGTSVRYVKPHGALYNTIAHDRRQAMAVIEAIRAIDPALVLVALAGSTLIELARSEGLQCIAEAFADRAYTPQGTLVSRREPGAVLHDPELVAQRMLRLVQSGSIEAIDGSLVRIEADSICVHGDSPAAVEMARELRRVLEQASTSLQPFAGKRSLEHHHHHH”, the “soluble on expression in E. coli” value is “not soluble”.
In the case of “MGSDKIHHHHHHVSENTLKPQVNKLLAALPTNDYERLIPHLKLVSLPTRQVIYEPGEPIKQVYFPQNAVVSIVTGMKDGSTVEVGIVSNEGMVGIPVILGGSTTTTKAFVQVAGSGVQIDADVLRTEFNRGGAIQNLLLRYIRATYTELTQGCACNRLHTLEERLARWLLTVSDRLESEEFPLTQEFIAQMLGVRRSGVTVAASALSRAGMISYQRGQINILNREDLEETSCECYRVIQNEFARLLKNQPKRDRR”, the “soluble on expression in E. coli” value is reported as “not soluble”.
With “SADEEEEVKPILQKLQELVDQLYSFRDCYFETHSVEDAGRKQQDVRKEMEKTLQQMEEVVGSVQGKAQVLMLTGKALNVTPDYSPKAEELLSKAVKLEPELVEAWNQLGEVYWKKGDVAAAHTCFSGALTHCRNKVSLQNLSMVLRQLRTDTEDEHSHHVMDSVRQAKLAVQMDVHDGRSWYILGNSYLSLYFSTGQNPKISQQALSAYAQAEKVDRKASSNPDLHLNRATLHKYEESYGEALEGFSRAAALDPAWPEPRQREQQLLEFLDRLTSLLESKGKVKTKKLQSMLGSLRPAHLGPCSDGHYQSASGQKVTLELKPLSTLQPGVNSGAVILGKVVFSLTTEEKVPFTFGLVDSDGPCYAVMVYNIVQSWGVLIGDSVAIPEPNLRLHRIQHKGKDYSFSSVRVETPLLLVVNGKPQGSSSQAVATVASRPQCE”, the “soluble on expression in E. coli” value is recorded as “soluble”.
Regarding “MSIYEFDSEEEYATFVNWIEAKKPSITDCSIETFNDDLEDFDRLDEDGLYIEYTRVLLDNLNVTKSMDLMIPTHSSFEFSQDFHLDAVRLRSCFGRNNLFNFHCKEIEVSDSEISSENVNQYLRAWAAGCYNELEKLEVLFYGNENKFDWKPLLQGLNRKRTIYEHNIIDPEVTDETTEVKIETEHPGEFDYYYYKWAKIHRKVDSEGNFYMGMIVN”, the “soluble on expression in E. coli” value is given as “not soluble”.
For the sequence “MGSDKIHHHHHHAESDSFEDNSSNFESMISLYGIQSATVDSKVGDVPSVTAEEMASVLEALRQNGNTIRNCESETLEGYYEGGDRKEVKMIAEYQARTRSGAFVEQFALCVSVNFNIDNNGGVFYIGTTYSSSTDLFNWQGYGASLSTTAEGNSVFSSTSYLYFRVSDQGNCLVKVPVSFKGSYNFKDNKGTYSFTLSKAAN”, the “soluble on expression in E. coli” value is listed as “not soluble”.
Regarding “EGKKIVFISDIHHGPYFERERVADLVRKVNELEPDIIILGGDYVSGDVGYIGACFEELSRLKADMGIFGVTGNHDEWTDYNLTVKCMENAGITVLSNRAEWLEIGDDKIKIAGVDWSTDWYFNSEPYVDPLIKDAEENDFVILVSHTPDLAEELTTDKVDLVLSGHTHGGQITFFGLWAPYVPSFYGQKYRTGIVKTDKTMALVSNGVGNTFLPIRFF”, the “soluble on expression in E. coli” value is “not soluble”.
Turning to “MGHHHHHHSHEVIKGSWQPVGDLLIDSLQDHLEKVKALRGEIAPLKENVSHVNDLARQLTTLGIQLSPYNLSTLEDLNTRWKLLQVAVEDRVRQLHEAHRDFGPASQHFLSTSVQGPWERAISPNKVPYYINHETQTTCWDHPKMTELYQSLADLNNVRFSAYRTAMKLRRLQKALCLDLLSLSAACDALDQHNLKQNDQPMDILQIINCLTTIYDRLEQEHNNLVNVPLCVDMCLNWLLNVYDTGRTGRIRVLSFKTGIISLCKAHLEDKYRYLFKQVASSTGFCDQRRLGLLLHDSIQIPRQLGEVASFGGSNIEPSVRSCFQFANNKPEIEAALFLDWMRLEPQSMVWLPVLHRVAAAETAKHQAKCNICKECPIIGFRYRSLKHFNYDICQSCFFSGRVAKGHKMHYPMVEYCTPTTSGEDVRDFAKVLKNKFRTKRYFAKHPRMGYLPVQTVLEGDNMETPVTLINFWPVDSAPAS”, the “soluble on expression in E. coli” value is on record as “not soluble”.
The result for “MSAQAKPRSEMTAEELAAKEDEEFNVGPLSILTNSVKNNHQVLINCRNNKKLLGRVKAFDRHCNMVLENVKEMWTEVPKTGKGKKKAKSVAKDRFISKMFLRGDSVILVVKNPLAQAE” reads “not soluble”; that for “MGSDKIHHHHHHMSTKSLPMDQILNELRSYDRSEHILNHGFDLGTAWWKIELRKAAWTPSGPLAEPTESVRIDRRRLFGMASEIHTGDIDPVDFTLSVVLWGSGSSRRNNRARIQSIVDVEGRVALRQALELASTDAEASFAAFRTNGRNAFAYLGPAFFTKLMYFAGAGSKSHDAYIVDHRVLQTLSRTPAGAGLRAIHNYGPNTYRRACSALEVIASAARVSGCPELADCTGDLVERWAFDVAGAS”, “not soluble”.
